Data from patent CN111087470A.

Molecular target: 人CD47 (human) (UniProt Q08722)
Assay: flow cytometry on red blood cells, commercial B6H12.2 as comparison

结合率: 99.2%
B1: 商品化抗CD47抗体B6H12.2 (antibody, from another filing)
scFv: EVQLVESGGDLVKPGGSLKLSCAASGFTFSGYGMSWVRQTPDKRLEWVATITSGGTYTYYPDSVKGRFTISRDNAKNTLYLQIDSLKSEDTAIYFCARSLAGNAMDYWGQGTSVTVSSGGGGSGGGGSGGGGSDIVMTQSPATLSVTPGDRVSLSCRASQTISDYLHWYQQKSHESPRLLIKFASQSISGIPSRFSGSGSGSDFTLSINSVEPEDVGVYYCQNGHGFPRTFGGGTKLEIKEQKLISEEDL
